These are literature values, as cited in publication PMC12302472.

This data set has as its target ATOX1 (Homo sapiens) (UniProt O00244). Put plainly: SPR. (In general: Surface plasmon resonance follows binding to a sensor surface in real time, without labels.)
Chain of UniProt O00244 (O00244 whole entry): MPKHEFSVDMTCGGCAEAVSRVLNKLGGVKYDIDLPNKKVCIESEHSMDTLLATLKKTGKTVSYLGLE

Usually Kd stands for the concentration at which binding is half-saturated. For the substance MEMO1 (from UniProt Q9Y316), the Kd is 210 nM.
